In patent US20240392004A1 (IMMUNOWAKE, published 2024):

T1: human IL-2 receptor (IL-2Rα, IL-2Rβ, IL-2Rγ) (human, UniProt P01589 22-272; P14784 27-551; P31785 23-369)
T1 sequence (looked up) 1: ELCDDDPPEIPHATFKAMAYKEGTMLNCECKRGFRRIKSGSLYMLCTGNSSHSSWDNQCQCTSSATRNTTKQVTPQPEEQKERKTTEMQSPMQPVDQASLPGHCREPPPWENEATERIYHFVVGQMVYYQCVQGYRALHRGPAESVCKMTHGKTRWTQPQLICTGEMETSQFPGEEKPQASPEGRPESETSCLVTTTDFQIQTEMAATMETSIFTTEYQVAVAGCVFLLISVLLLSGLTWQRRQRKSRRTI
T1 sequence (looked up) 2: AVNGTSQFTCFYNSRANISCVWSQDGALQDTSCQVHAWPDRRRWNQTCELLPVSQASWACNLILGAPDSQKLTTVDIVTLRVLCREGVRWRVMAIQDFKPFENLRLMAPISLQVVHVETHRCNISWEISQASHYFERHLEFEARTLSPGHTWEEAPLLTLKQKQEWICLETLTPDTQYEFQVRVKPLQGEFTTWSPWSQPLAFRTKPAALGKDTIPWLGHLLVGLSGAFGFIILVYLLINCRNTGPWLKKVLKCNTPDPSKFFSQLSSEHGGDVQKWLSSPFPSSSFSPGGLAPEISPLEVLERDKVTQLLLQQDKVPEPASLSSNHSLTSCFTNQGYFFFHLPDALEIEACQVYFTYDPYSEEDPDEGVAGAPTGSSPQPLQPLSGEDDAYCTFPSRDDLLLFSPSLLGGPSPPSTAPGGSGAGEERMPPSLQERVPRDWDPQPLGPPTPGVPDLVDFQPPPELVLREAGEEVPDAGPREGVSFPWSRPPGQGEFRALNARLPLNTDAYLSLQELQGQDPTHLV
T1 sequence (looked up) 3: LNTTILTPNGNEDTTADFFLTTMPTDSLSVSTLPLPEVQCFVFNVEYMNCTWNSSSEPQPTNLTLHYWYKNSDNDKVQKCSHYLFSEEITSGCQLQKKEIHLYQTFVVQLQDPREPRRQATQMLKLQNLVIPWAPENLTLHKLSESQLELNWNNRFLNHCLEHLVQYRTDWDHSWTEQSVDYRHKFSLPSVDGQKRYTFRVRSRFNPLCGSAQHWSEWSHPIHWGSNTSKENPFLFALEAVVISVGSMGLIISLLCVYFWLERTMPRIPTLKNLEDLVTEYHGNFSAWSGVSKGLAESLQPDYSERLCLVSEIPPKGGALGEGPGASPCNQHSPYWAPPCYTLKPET

T2: mouse PD-1 (mouse, UniProt Q02242 25-167, limits assumed)
T2 construct: also called mPD-1
T2 sequence (looked up): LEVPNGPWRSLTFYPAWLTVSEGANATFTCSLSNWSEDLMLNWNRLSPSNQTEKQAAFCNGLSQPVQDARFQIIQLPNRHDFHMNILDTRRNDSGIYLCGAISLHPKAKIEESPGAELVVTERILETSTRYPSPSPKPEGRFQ

T3: IFN-γ receptor (IFNGR1 and IFNGR2) (UniProt P15260 18-489; P38484 22-337, limits assumed)
T3 sequence (looked up) 1: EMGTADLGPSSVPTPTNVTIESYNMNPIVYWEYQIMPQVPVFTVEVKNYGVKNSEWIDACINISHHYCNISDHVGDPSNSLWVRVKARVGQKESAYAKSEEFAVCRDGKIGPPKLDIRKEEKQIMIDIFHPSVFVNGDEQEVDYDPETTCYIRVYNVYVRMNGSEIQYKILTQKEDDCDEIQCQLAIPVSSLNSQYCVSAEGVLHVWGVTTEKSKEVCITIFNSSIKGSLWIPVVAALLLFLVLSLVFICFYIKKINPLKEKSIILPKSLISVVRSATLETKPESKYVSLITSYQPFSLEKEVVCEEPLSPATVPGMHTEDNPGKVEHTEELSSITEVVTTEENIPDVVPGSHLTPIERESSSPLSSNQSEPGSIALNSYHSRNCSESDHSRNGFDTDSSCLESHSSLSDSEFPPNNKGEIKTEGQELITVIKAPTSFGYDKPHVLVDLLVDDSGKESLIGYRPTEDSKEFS
T3 sequence (looked up) 2: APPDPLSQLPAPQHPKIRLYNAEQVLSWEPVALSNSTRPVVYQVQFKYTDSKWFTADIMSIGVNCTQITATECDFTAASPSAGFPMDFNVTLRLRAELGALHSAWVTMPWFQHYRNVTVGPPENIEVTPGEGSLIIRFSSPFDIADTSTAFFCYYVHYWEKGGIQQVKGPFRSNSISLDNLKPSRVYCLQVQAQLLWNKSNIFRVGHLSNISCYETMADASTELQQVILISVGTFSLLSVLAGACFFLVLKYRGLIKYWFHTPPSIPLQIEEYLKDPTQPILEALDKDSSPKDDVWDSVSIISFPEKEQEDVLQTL


What was measured:
[1] = molecular target: T4, human PD-1 on cells (HEK-PD-1 reporter cells; activated PBMC) (human, UniProt Q15116 25-288); test: cell-based or functional assay
T4 sequence (Q15116 25-288): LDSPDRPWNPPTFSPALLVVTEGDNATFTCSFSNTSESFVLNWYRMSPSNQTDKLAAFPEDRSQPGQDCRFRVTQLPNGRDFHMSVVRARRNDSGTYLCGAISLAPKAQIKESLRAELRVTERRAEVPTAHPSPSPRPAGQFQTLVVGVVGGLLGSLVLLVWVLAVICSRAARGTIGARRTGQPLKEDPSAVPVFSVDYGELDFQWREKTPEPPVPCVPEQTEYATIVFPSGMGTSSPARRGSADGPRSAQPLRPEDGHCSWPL

[2] = molecular target: T1, human IL-2 receptor (IL-2Rα, IL-2Rβ, …); test: cell-based or functional assay
human PD-1 = molecular target: T5, human PD-1 (human, UniProt Q15116 25-167, limits assumed); test: PD-L1-Fc format, calibrated on PD-L1(wt)-Fc, method not stated
T5 construct: also called hPD-1
T5 sequence (Q15116 25-167 limits assumed): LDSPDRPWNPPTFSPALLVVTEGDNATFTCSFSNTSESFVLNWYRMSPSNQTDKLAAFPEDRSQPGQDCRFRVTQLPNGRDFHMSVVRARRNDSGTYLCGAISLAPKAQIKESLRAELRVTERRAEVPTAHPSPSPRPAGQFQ

mouse PD-1 = molecular target: T2, mouse PD-1; test: as above
[3] = molecular target: T4, human PD-1 on cells (HEK-PD-1 reporter …); test: cell-based or functional assay; remark: listed apart in the source
[4] = molecular target: human IL-12 receptor complex (IL-12Rβ1 and IL-12Rβ2) (human, UniProt P42701 24-662; Q99665 24-862); test: cell-based or functional assay
Sequence of human IL-12 receptor complex (IL-12Rβ1 and IL-12Rβ2) (Q99665 24-862, chain 2 of 2, other chains not shown): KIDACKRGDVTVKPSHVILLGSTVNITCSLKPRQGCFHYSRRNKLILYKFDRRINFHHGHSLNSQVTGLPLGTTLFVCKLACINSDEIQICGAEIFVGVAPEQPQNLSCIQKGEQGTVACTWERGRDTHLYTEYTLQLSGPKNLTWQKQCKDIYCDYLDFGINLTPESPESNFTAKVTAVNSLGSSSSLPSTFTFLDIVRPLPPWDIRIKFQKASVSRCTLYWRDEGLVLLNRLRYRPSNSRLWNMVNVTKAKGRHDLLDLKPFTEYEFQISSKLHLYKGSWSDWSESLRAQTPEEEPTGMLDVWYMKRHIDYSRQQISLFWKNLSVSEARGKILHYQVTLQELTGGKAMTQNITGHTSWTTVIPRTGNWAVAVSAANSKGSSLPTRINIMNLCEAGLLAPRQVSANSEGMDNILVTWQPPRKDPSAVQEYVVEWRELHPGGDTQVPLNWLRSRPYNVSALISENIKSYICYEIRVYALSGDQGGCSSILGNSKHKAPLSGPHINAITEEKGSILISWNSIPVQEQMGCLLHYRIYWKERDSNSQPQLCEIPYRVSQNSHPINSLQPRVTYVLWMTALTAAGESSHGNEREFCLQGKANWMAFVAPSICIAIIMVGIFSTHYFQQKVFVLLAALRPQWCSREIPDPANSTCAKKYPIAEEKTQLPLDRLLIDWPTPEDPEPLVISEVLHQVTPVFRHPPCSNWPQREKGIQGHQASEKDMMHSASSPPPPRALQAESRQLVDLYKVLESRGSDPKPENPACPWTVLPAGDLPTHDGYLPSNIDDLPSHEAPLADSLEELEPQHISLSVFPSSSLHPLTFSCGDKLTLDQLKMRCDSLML

[5] = molecular target: T3, IFN-γ receptor (IFNGR1 and IFNGR2); test: cell-based or functional assay

IL-2 signal transduction, HEK-IL-2-PD-1 [1] [%]	IL-2 signal transduction, HEK-IL-2 [2] [%]	Kd (human PD-1) [nM]	Kd (mouse PD-1) [nM]	IFN-γ signal transduction, HEK-IFN-γ-PD-1 [3] [%]	IL-12 signal transduction, HEK-IL-12-PD-1 [3] [%]	IL-12 signal transduction, HEK-IL-12 [4] [%]	IFN-γ signal transduction, HEK-IFN-γ [5] [%]	Binder
< 0.1	< 0.1	150	120					PD-L1(mut2)-Fc, I54Q/E58M/R113T/M115L/S117A/G119K (Fc fusion) chain 1: FTVTVPKDLYVVEYGSNMTIECKFPVEKQLDLAALQVYWMMEDKNIIQFVHGEEDLKVQHSSYRQRARLLKDQLSLGNAALQITDVKLQDAGVYTCLIAYKGADYKRITVKVNAPYNKINQRILVVDPVTSEHELTCQAEGYPKAEVIWTSSDHQVLSGKTTTTNSKREEKLFNVTSTLRINTTTNEIFYCTFRRLDPEENHTAELVIPELPLAHPPNERGGGGSGGGDKTHTCPPCPAPEDEGGPSVFLFPPKPKDTLMISRTPEVTCVVVDVSHEDPEVKFNWYVDGVEVHNAKTKPREEQYNSTYRVVSVLTVLHQDWLNGKEYKCKVSNKALPAPIEKTISKAKGQPREPQVYVYPPSREEMTKNQVSLTCLVKGFYPSDIAVEWESNGQPENNYKTTPPVLDEDGSFALVSKLTVDKSRWQQGNVFSCSVMHEALHNHYTQKSLSLSPGK chain 2: FTVTVPKDLYVVEYGSNMTIECKFPVEKQLDLAALQVYWMMEDKNIIQFVHGEEDLKVQHSSYRQRARLLKDQLSLGNAALQITDVKLQDAGVYTCLIAYKGADYKRITVKVNAPYNKINQRILVVDPVTSEHELTCQAEGYPKAEVIWTSSDHQVLSGKTTTTNSKREEKLFNVTSTLRINTTTNEIFYCTFRRLDPEENHTAELVIPELPLAHPPNERGGGGSGGGDKTHTCPPCPAPEKKGGPSVFLFPPKPKDTLMISRTPEVTCVVVDVSHEDPEVKFNWYVDGVEVHNAKTKPREEQYNSTYRVVSVLTVLHQDWLNGKEYKCKVSNKALPAPIEKTISKAKGQPREPQVYVLPPSREEMTKNQVSLLCLVKGFYPSDIAVEWESNGQPENRYMTWPPVLDSDGSFFLYSKLTVDKSRWQQGNVFSCSVMHEALHNHYTQKSLSLSPGK
				44	< 0.2	< 0.2	< 0.1	IFN-γ(A23V/A23V)/PD-L1(mut2)-Fc (Fc fusion) chain 1: FTVTVPKDLYVVEYGSNMTIECKFPVEKQLDLAALQVYWMMEDKNIIQFVHGEEDLKVQHSSYRQRARLLKDQLSLGNAALQITDVKLQDAGVYTCLIAYKGADYKRITVKVNAPYNKINQRILVVDPVTSEHELTCQAEGYPKAEVIWTSSDHQVLSGKTTTTNSKREEKLFNVTSTLRINTTTNEIFYCTFRRLDPEENHTAELVIPELPLAHPPNERGGGGSGGGDKTHTCPPCPAPEDEGGPSVFLFPPKPKDTLMISRTPEVTCVVVDVSHEDPEVKFNWYVDGVEVHNAKTKPREEQYNSTYRVVSVLTVLHQDWLNGKEYKCKVSNKALPAPIEKTISKAKGQPREPQVYVYPPSREEMTKNQVSLTCLVKGFYPSDIAVEWESNGQPENNYKTTPPVLDEDGSFALVSKLTVDKSRWQQGNVFSCSVMHEALHNHYTQKSLSLSPGK chain 2: FTVTVPKDLYVVEYGSNMTIECKFPVEKQLDLAALQVYWMMEDKNIIQFVHGEEDLKVQHSSYRQRARLLKDQLSLGNAALQITDVKLQDAGVYTCLIAYKGADYKRITVKVNAPYNKINQRILVVDPVTSEHELTCQAEGYPKAEVIWTSSDHQVLSGKTTTTNSKREEKLFNVTSTLRINTTTNEIFYCTFRRLDPEENHTAELVIPELPLAHPPNERGGGSGQDPYVKEAENLKKYFNAGHSDVVDNGTLFLGILKNWKEESDRKIMQSQIVSFYFKLFKNFKDDQSIQKSVETIKEDMNVKFFNSNKKKRDDFEKLTNYSVTDLNVQRKAIHELIQVMAELSPAAKTGKRKRSQMLFRGGGGSGGGGSGGGGSGGGGSQDPYVKEAENLKKYFNAGHSDVVDNGTLFLGILKNWKEESDRKIMQSQIVSFYFKLFKNFKDDQSIQKSVETIKEDMNVKFFNSNKKKRDDFEKLTNYSVTDLNVQRKAIHELIQVMAELSPAAKTGKRKRSQMLFRGGGGGSGGGDKTHTCPPCPAPEKKGGPSVFLFPPKPKDTLMISRTPEVTCVVVDVSHEDPEVKFNWYVDGVEVHNAKTKPREEQYNSTYRVVSVLTVLHQDWLNGKEYKCKVSNKALPAPIEKTISKAKGQPREPQVYVLPPSREEMTKNQVSLLCLVKGFYPSDIAVEWESNGQPENRYMTWPPVLDSDGSFFLYSKLTVDKSRWQQGNVFSCSVMHEALHNHYTQKSLSLSPGK
